Bridges are numbered along the chain shown (N, C = ends). Where no end group is shown, it is not given here. [ ]: non-standard residue; d: D form. Trp(5-OH) = N[C@@H](Cc1c[nH]c2ccc(O)cc12)C(=O)O; Phe(4-NH2) = Nc1ccc(C[C@H](N)C(=O)O)cc1; βAla = NCCC(=O)O
molecular target: PSD-95 PDZ3cα protein (residues R309-S422) (UniProt P78352); test: SPR; details: not given
Sequence (P78352 309-422): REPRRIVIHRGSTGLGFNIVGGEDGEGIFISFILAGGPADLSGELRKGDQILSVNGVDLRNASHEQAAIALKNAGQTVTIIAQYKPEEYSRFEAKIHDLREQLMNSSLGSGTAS

Kd [nM]	koff [s⁻¹]	kon [M⁻¹ s⁻¹]	Molecule
121	0.0261	216000	F4H (peptide 11), SYNGAP peptide with the substitution F4H
101	0.00294	–	V8I (peptide 10), SYNGAP peptide with the substitution V8I
58.4	0.00381	–	V8L (peptide 9), SYNGAP peptide with the substitution V8L

system: PDZ3cα fragment; test: not given; details: ref [31]; cited from earlier work

Molecule	fold higher affinity for PDZ3cα fragment than for the isolated PDZ3 domain [fold]
-YKQTSV [CRIPT linear PBM]	21

same assay, conditions: relative to isolated PDZ domains; ref [10], [30]; cited from earlier work

Molecule	fold higher affinity to the longer PDZ3cα fragment [fold]
-VQQTRV [SynGAP PBM]	15

molecular target: PSD-95 PDZ3cα protein (residues R309-S422) (UniProt P78352 309-422); test: SPR; details: not given
Sequence (P78352 309-422): as above

Molecule	koff [s⁻¹]	kon [M⁻¹ s⁻¹]	Kd [nM]
CKNYKKTEV (lactam 6-8 via βAla) [Cyclic peptide derived from CRIPT (peptide 6)]	0.0291	76000	–
GSFPPWVQ [αC binder (peptide 8), fragment of the SYNGAP peptide made up of only αC helix interacting residues]	0.00592	1000	11100
RRRRRRGSFPPWV[dQ]QTRV [D-Gln9 (peptide 18), SYNGAP peptide with d-Gln]	0.0182	317000	57.3

Further lines, results first:

koff [s⁻¹]	kon [M⁻¹ s⁻¹]	Kd [nM]	Molecule
0.0287	439000	–	CGSFPPWVKKTEV (bridge 10-12; not fully specified (residue 10, bridges)) [Syn3* (peptide 4), active component peptide of Syn3 without the poly-arginine moiety]
0.0116	1.88e+06	6.1	RRRRRRGSF[dP]PWVQQTRV [D-Pro4 (peptide 15), SYNGAP peptide with d-Pro at the first proline]
0.00493	633000	7.8	RRRRRRG[dS]FPPWVQQTRV [D-Ser3 (peptide 14), SYNGAP peptide with d-Ser]
0.0104	153000	67.8	RRRRRRGS[Phe(4-NH2)]PPWVQQTRV [F4-NH2F (peptide 12), SYNGAP peptide with ζ-Amino-Phe in place of Phe4]
0.0459	2.19e+06	20.9	RRRRRRGSFPPW[dV]QQTRV [D-Val8 (peptide 17), SYNGAP peptide with d-Val]
0.0106	24000	446	RRRRRRGSFPP[Trp(5-OH)]VQQTRV [W7-OHW (peptide 13), SYNGAP peptide with 5-hydroxy-Trp in place of Trp7]
0.0444	1.83e+06	24.3	RRRRRRGSFP[dP]WVQQTRV [D-Pro5 (peptide 16), SYNGAP peptide with d-Pro at the second proline]
